Molecular target: HIS-CbuHMGA (Catalpa bungei)
Assay: BLI; Octet QK (Forte-Bio); GST-CbuSPL9 at 2381, 1191, 595.3, 297.6 and 148.8 nM on HIS-CbuHMGA; which protein was immobilised, buffer and temperature not told

- Kd: 311 nM
Substance: GST-CbuSPL9 (natural protein)
